Test results taken from US20140072563A1 (Regeneron, published 2014).
One block for each binder: values may come before it.

Columns and labels:
[1] = target: T1, hErbB3.mmh (soluble monomeric human ErbB3 extracellular domain with C-terminal myc-myc-hexahistidine tag) (human, UniProt P21860 20-642); assay: SPR (Biacore), 37 C, mAb capture format
Procedure: (§1) (Tables 2-4). Measurements were conducted on a Biacore 2000 or T100 instrument. […] Kinetic association (kₐ) and dissociation (kd) rate constants were determined by processing and fitting the data to a 1:1 binding model using Scrubber 2.0 curve fitting software.

[2] = target: T2, hErbB3.mFc (soluble dimeric human ErbB3 extracellular domain fused to mouse Fc) (human); assay: SPR (Biacore), 37 C, mAb capture format
T2 construct: called dimeric
T2 chain: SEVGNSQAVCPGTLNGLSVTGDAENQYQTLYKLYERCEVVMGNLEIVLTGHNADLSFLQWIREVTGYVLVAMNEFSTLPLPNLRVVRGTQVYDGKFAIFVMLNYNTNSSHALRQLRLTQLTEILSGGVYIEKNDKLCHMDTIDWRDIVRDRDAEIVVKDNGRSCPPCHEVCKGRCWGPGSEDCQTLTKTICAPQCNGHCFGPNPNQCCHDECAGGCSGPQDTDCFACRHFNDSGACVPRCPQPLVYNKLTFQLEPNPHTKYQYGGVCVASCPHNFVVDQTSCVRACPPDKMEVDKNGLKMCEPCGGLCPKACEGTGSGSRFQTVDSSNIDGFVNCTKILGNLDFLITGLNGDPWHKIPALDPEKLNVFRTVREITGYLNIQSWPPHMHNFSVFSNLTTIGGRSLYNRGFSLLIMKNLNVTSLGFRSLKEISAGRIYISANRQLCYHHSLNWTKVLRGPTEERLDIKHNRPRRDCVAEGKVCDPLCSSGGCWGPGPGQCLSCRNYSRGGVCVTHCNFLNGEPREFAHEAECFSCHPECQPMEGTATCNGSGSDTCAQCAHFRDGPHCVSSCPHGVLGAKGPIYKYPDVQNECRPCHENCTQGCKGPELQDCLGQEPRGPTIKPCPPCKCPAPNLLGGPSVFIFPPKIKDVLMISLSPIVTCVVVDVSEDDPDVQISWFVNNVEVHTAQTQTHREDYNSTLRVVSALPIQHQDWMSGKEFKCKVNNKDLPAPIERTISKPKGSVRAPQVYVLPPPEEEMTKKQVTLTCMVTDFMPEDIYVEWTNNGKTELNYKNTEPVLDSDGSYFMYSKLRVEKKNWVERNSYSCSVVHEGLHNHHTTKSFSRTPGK
Procedure: as §1

[3] = target: T1, hErbB3.mmh (soluble monomeric human …); assay: SPR (Biacore), 25 C, mAb capture format
Procedure: as §1

[4] = target: T2, hErbB3.mFc (soluble dimeric human ErbB3 …); assay: SPR (Biacore), 25 C, mAb capture format
Procedure: as §1

Kd [1]: 0.167 nM
T½ [1]: 0.183 h
koff [1]: 0.00108 s⁻¹
kon [1]: 6.49e+06 M⁻¹ s⁻¹
Kd [2]: 0.00189 nM
T½ [2]: 5.43 h
koff [2]: 3.55e-05 s⁻¹
kon [2]: 1.87e+07 M⁻¹ s⁻¹
Kd [3]: 0.051 nM
T½ [3]: 1 h
koff [3]: 0.000192 s⁻¹
kon [3]: 3.8e+06 M⁻¹ s⁻¹
Kd [4]: 0.000355 nM
T½ [4]: 44.4 h
koff [4]: 4.33e-06 s⁻¹
kon [4]: 1.22e+07 M⁻¹ s⁻¹
B1: H4H1821N (antibody, V domains shown)
VH: EVQLVESGGGLVQPGRSLRLSCAASGFTFDDYAMHWVRQAPGKGLEWVSSISWNSGSIGYADSVKGRFTISRDNAKNSLYLQMNSLKPEDTALYYCTKDTDYGDYLDAFDIWGQGTMVAVAS
VL: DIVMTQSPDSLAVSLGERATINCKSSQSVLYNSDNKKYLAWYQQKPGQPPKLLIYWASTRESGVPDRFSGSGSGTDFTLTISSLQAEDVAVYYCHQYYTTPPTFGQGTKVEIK
notes: Human IgG4 Fc (H4H prefix); same variable domains as H2M1821N

Kd [1]: 0.129 nM
T½ [1]: 0.117 h
koff [1]: 0.00156 s⁻¹
kon [1]: 1.21e+07 M⁻¹ s⁻¹
Kd [2]: 0.00153 nM
T½ [2]: 3.43 h
koff [2]: 5.62e-05 s⁻¹
kon [2]: 3.68e+07 M⁻¹ s⁻¹
Kd [3]: 0.0435 nM
T½ [3]: 0.55 h
koff [3]: 0.000351 s⁻¹
kon [3]: 8.1e+06 M⁻¹ s⁻¹
Kd [4]: 0.000943 nM
T½ [4]: 12.5 h
koff [4]: 1.54e-05 s⁻¹
kon [4]: 1.64e+07 M⁻¹ s⁻¹
B2: H4H1819N (antibody, V domains shown)
VH: EVQLVESGGGVVRPGGSLRLSCAASGFTFDDYAMHWVRQAPGKGLEWVAGISWNSGSIDYADSVKGRFTISRDNAKNSLYLQMNSLRAGDTALYYCAKDILDLDYYGLDVWGQGTTVTVSS
VL: DIQMTQSPSSLSASVGDRVTITCRASQDISSYLAWYQQKPGKVPNLLIYDASSLQSGVPSRFSGSGSGTDFTLTLSSLQPEDFASYYCQNYNSAPYTFGQGTKLEIK
notes: Human IgG4 Fc (H4H prefix); same variable domains as H1M1819N
